Data as given in patent publication US20170081383A1, “MELANOCORTIN ANALOGS HAVING ENHANCED ACTIVITY AND TRANSPORT” (Tensive Controls Inc., priority 2012, published 2017).
Positions of bridges follow the written chain, without caps; N, C: chain ends. Non-standard residues stand in square brackets, D forms with d. d2Nal = N[C@H](Cc1ccc2ccccc2c1)C(=O)O; Nle = CCCC[C@H](N)C(=O)O

Legend:
[1] = Sutton et al., Peptides 2008; cited from earlier work
[2] = system: urethane-anesthetized rats; test: Cardiovascular activity of melanocortin peptides (MAP, heart rate, ECG); settings: 200 nmol, n = 5
Protocol: These studies were performed in urethane-anesthetized rats, since anesthesia is required for six-lead ECG monitoring. […] Initial selection of doses was guided by FDA exploratory IND studies with a recommendation for at least a 100-fold excess of the human dose.

In the case of “Ac-Nle-c[Asp-Pro-D-Nal(2′)-Arg-Trp-Lys]-Pro-Val-NH2 (Ac-[Nle]DP[d2Nal]RWKPV-NH2; lactam 2-7) [PG932]”, the peripheral activity [1] is listed as “active peripherally”, the “Duration” value [2] is listed as 4 ± 3 min and the “Peak Heart Rate Response (BPM)” value [2] is listed as 13 ± 9 BPM. The “Peak MAP Response (Δ mm Hg)” value [2] was 5 ± 3 mm Hg.
